{"source": "patent US20160002311A1", "about": "(Novo Nordisk, published 2016)", "binders": {"B1": {"name": "N^ε24-([2-[2-[2-[[2-[2-[2-[[(4S)-5-hydroxy-4-[(18-hydroxy-18-oxooctadecanoyl)amino]-5-oxopentanoyl]amino]ethoxy]ethoxy]acetyl]amino]ethoxy]ethoxy]acetyl])[D-Ser … (peptide)", "peptide": "H[dS]QGTFTSDYSKYLDEQAARDFVK([AEEA-AEEA-γGlu-C18 diacid])WLLNT-NH2", "modifications": "N-terminus assumed", "SMILES": "CC(C)C[C@H](NC(=O)[C@H](Cc1ccc(O)cc1)NC(=O)[C@H](CCCCN)NC(=O)[C@H](CO)NC(=O)[C@H](Cc1ccc(O)cc1)NC(=O)[C@H](CC(=O)O)NC(=O)[C@H](CO)NC(=O)[C@@H](NC(=O)[C@H](Cc1ccccc1)NC(=O)[C@@H](NC(=O)CNC(=O)[C@H](CCC(N)=O)NC(=O)[C@@H](CO)NC(=O)[C@@H](N)Cc1c[nH]cn1)[C@@H](C)O)[C@@H](C)O)C(=O)N[C@@H](CC(=O)O)C(=O)N[C@@H](CCC(=O)O)C(=O)N[C@@H](CCC(N)=O)C(=O)N[C@@H](C)C(=O)N[C@@H](C)C(=O)N[C@@H](CCCNC(=N)N)C(=O)N[C@@H](CC(=O)O)C(=O)N[C@@H](Cc1ccccc1)C(=O)N[C@H](C(=O)N[C@@H](CCCCNC(=O)COCCOCCNC(=O)COCCOCCNC(=O)CC[C@H](NC(=O)CCCCCCCCCCCCCCCCC(=O)O)C(=O)O)C(=O)N[C@@H](Cc1c[nH]c2ccccc12)C(=O)N[C@@H](CC(C)C)C(=O)N[C@@H](CC(C)C)C(=O)N[C@@H](CC(N)=O)C(=O)N[C@H](C(N)=O)[C@@H](C)O)C(C)C"}}, "key": {"glucagon receptor [1]": {"molecular_target": "T1, glucagon receptor (UniProt P47871 26-477, limits assumed)", "T1 sequence (P47871 26-477 limits assumed)": "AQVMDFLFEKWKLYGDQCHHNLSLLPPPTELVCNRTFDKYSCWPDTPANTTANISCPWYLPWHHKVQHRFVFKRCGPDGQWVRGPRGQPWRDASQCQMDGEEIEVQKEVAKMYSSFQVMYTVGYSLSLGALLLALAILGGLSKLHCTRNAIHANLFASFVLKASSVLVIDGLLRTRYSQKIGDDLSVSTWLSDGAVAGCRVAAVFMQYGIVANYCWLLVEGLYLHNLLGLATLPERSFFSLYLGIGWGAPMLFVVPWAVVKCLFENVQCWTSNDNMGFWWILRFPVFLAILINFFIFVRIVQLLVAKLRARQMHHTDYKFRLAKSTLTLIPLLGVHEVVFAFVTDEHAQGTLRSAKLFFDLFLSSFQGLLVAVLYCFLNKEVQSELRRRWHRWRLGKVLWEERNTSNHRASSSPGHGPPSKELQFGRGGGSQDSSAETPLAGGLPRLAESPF", "experiment": "cell-based or functional assay"}, "glucagon receptor [2]": {"molecular_target": "T1, glucagon receptor", "experiment": "cell-based or functional assay", "remark": "listed apart in the source"}}, "note": "Like-named read-outs stand apart in the source and are kept apart here. Numbered stars: 1 amine (or outer) side, 2 acyl side, 3 side chain; on linkers, the order of the positions; unused ones are H or OH. Square brackets hold non-standard residues; d marks the D form. Side chains are listed from the residue outwards. Ends that are not written are not given here. * marks the point of attachment. C18 diacid = O=C(O)CCCCCCCCCCCCCCCCC(=O)*; γGlu = O=C(O)[C@H](CCC(=O)[*:2])N[*:1]; Orn = NCCC[C@H](N)C(=O)O; AEEA = NCCOCCOCC(=O)O", "data": [{"binder": "HSQGTFTSDYSKYLDSKKAQEFV[Orn]([AEEA-AEEA-γGlu-C18 diacid])WLLST", "values": [{"measurement": "Assay (I) Glucagon [EC50]", "setting": "glucagon receptor [1]", "value": 0.036, "unit": "nM"}]}, {"binder": "HSQGTFTSDYSKYLDSKKAQEFVK([AEEA-AEEA-γGlu-C18 diacid])WLLDT", "values": [{"measurement": "Assay (I) Glucagon [EC50]", "setting": "glucagon receptor [1]", "value": 0.051, "unit": "nM"}]}, {"binder": "HSQGTFTSDYSKYLDSKKAQEFVQWLLNK([AEEA-AEEA-γGlu-C18 diacid])", "values": [{"measurement": "Assay (I) Glucagon [EC50]", "setting": "glucagon receptor [1]", "value": 0.053, "unit": "nM"}]}, {"binder": "B1", "values": [{"measurement": "Assay (I) Glucagon [EC50]", "setting": "glucagon receptor [2]", "value": 0.137, "unit": "nM"}]}, {"binder": "HSQGTFTSDYSKYLDSKKAQEFVQWLLNT", "note": "[[K^17,K^18, E^21, L^27] Glucagon]", "values": [{"measurement": "Assay (I) Glucagon [EC50]", "setting": "glucagon receptor [1]", "value": 0.003, "unit": "nM"}]}]}
